Experimental data: patent publication US20050118674A1, “Engineering of Controlled Deamidation Rates in Peptides, Proteins, and Similar Structures” (priority 2003, published 2005)

Assay: First-order nonenzymatic deamidation of pentapeptides in Tris buffer
Assay type: physicochemical
Conditions: 0.15 M Tris HCl; for First-Order Deamidation Halftimes of GlyXxxAsnYyyGly: pH 7.4, 37.0° C., Asn pentapeptides; for First-Order Deamidation Halftimes of GlyXxxGlnYyyGly: pH 7.4, 37.0 ° C., Gln pentapeptides, 52 values measured, rest derived from surface fitting
In short: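 Pentapeptides containing Asn or Gln in varied flanking sequences incubated at 37° C., pH 7.4, 0.15 M Tris buffer; first-order deamidation rates measured. Some Asn values estimated from remaining data; many Gln values derived from surface fitting rather than measured.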

Substance	First-Order Deamidation Halftimes of GlyXxxAsnYyyGly [days]	First-Order Deamidation Halftimes of GlyXxxGlnYyyGly [days]
GlyGlyAsnIleGly (GGNIG; printed: GlyGlyAsnIleGly)	287	
GlyLysAsnHisGly (GKNHG; printed: GlyLysAsnHisGly)	10.5	
GlyHisGlnTyrGly (GHQYG; printed: GlyHisGlnTyrGly)		14000
GlyValAsnArgGly (GVNRG; printed: GlyValAsnArgGly)	67.4	
GlyIleAsnAspGly (GINDG; printed: GlyIleAsnAspGly)	33.8	
GlyProGlnTyrGly (GPQYG; printed: GlyProGlnTyrGly)		10000
GlyAspGlnSerGly (GDQSG; printed: GlyAspGlnSerGly)		6200
GlyMetGlnPheGly (GMQFG; printed: GlyMetGlnPheGly)		6600
GlyTrpAsnMetGly (GWNMG; printed: GlyTrpAsnMetGly)	64.2	
GlyThrGlnHisGly (GTQHG; printed: GlyThrGlnHisGly)		4500
GlySerAsnAspGly (GSNDG; printed: GlySerAsnAspGly)	30.3	
GlyValAsnCysGly (GVNCG; printed: GlyValAsnCysGly)	63.2	
GlyGlyAsnTrpGly (GGNWG; printed: GlyGlyAsnTrpGly)	77.1	
GlyAspGlnProGly (GDQPG; printed: GlyAspGlnProGly)		11000
GlyTyrGlnProGly (GYQPG; printed: GlyTyrGlnProGly)		11000
GlyCysAsnLysGly (GCNKG; printed: GlyCysAsnLysGly)	46.6	
GlyTrpAsnTyrGly (GWNYG; printed: GlyTrpAsnTyrGly)	92.6	
GlyTyrAsnMetGly (GYNMG; printed: GlyTyrAsnMetGly)	64.3	
GlyValGlnTyrGly (GVQYG; printed: GlyValGlnTyrGly)		9700
GlyGlyAsnAlaGly (GGNAG; printed: GlyGlyAsnAlaGly)	21.1	
GlyGlyAsnLeuGly (GGNLG; printed: GlyGlyAsnLeuGly)	104	
GlyGlyGlnAlaGly (GGQAG; printed: GlyGlyGlnAlaGly)		5900
GlyHisGlnAlaGly (GHQAG; printed: GlyHisGlnAlaGly)		7200
GlyThrGlnCysGly (GTQCG; printed: GlyThrGlnCysGly)		1000
GlyProGlnIleGly (GPQIG; printed: GlyProGlnIleGly)		6000
GlyTrpGlnGluGly (GWQEG; printed: GlyTrpGlnGluGly)		8500
GlyTrpGlnPheGly (GWQFG; printed: GlyTrpGlnPheGly)		8600

Substance	First-Order Deamidation Halftimes of GlyXxxAsnYyyGly [days]	First-Order Deamidation Halftimes of GlyXxxGlnYyyGly [days]
GlyThrAsnValGly (GTNVG; printed: GlyThrAsnValGly)	237	
GlyAspAsnCysGly (GDNCG; printed: GlyAspAsnCysGly)	54.1	
GlyProAsnAmCysGly	43.7	
GlyTyrAsnProGly (GYNPG; printed: GlyTyrAsnProGly)	9830	
GlyTrpAsnSerGly (GWNSG; printed: GlyTrpAsnSerGly)	15.5	
GlyProGlnValGly (GPQVG; printed: GlyProGlnValGly)		6200
GlyAlaAsnArgGly (GANRG; printed: GlyAlaAsnArgGly)	62.4	
GlyGluAsnCysGly (GENCG; printed: GlyGluAsnCysGly)	44.2	
GlyTyrGlnLysGly (GYQKG; printed: GlyTyrGlnLysGly)		7500
GlyTrpAsnAlaGly (GWNAG; printed: GlyTrpAsnAlaGly)	30.7	
GlyValGlnAspGly (GVQDG; printed: GlyValGlnAspGly)		7000
GlyGlyGlnSerGly (GGQSG; printed: GlyGlyGlnSerGly)		5700
GlyGluGlnPheGly (GEQFG; printed: GlyGluGlnPheGly)		8400
GlyArgAsnIleGly (GRNIG; printed: GlyArgAsnIleGly)	311	
GlyThrGlnValGly (GTQVG; printed: GlyThrGlnValGly)		5100
GlyHisGlnSerGly (GHQSG; printed: GlyHisGlnSerGly)		6300
GlyGluAsnHisGly (GENHG; printed: GlyGluAsnHisGly)	9.0	
GlyCysGlnValGly (GCQVG; printed: GlyCysGlnValGly)		5000
GlyLeuAsnArgGly (GLNRG; printed: GlyLeuAsnArgGly)	62.1	
GlyGlyGlnArgGly (GGQRG; printed: GlyGlyGlnArgGly)		7200
GlyLysGlnGlyGly (GKQGG; printed: GlyLysGlnGlyGly)		650
GlyArgAsnThrGly (GRNTG; printed: GlyArgAsnThrGly)	50.7	
GlyThrGlnIleGly (GTQIG; printed: GlyThrGlnIleGly)		5300
GlyTrpGlnAlaGly (GWQAG; printed: GlyTrpGlnAlaGly)		7400
GlyIleAsnLeuGly (GINLG; printed: GlyIleAsnLeuGly)	154	
GlyThrAsnProGly (GTNPG; printed: GlyThrAsnProGly)	6290	
GlyPheGlnCysGly (GFQCG; printed: GlyPheGlnCysGly)		2000

Substance	First-Order Deamidation Halftimes of GlyXxxAsnYyyGly [days]	First-Order Deamidation Halftimes of GlyXxxGlnYyyGly [days]
GlyIleGlnLysGly (GIQKG; printed: GlyIleGlnLysGly)		6100
GlyPheGlnTyrGly (GFQYG; printed: GlyPheGlnTyrGly)		12000
GlyProAsnGluGly (GPNEG; printed: GlyProAsnGluGly)	92.0	
GlyAlaGlnMetGly (GAQMG; printed: GlyAlaGlnMetGly)		4400
GlyArgGlnSerGly (GRQSG; printed: GlyArgGlnSerGly)		4300
GlyIleGlnAspGly (GIQDG; printed: GlyIleGlnAspGly)		8100
GlyValGlnGlyGly (GVQGG; printed: GlyValGlnGlyGly)		640
GlyLysGlnProGly (GKQPG; printed: GlyLysGlnProGly)		7700
GlyArgAsnTrpGly (GRNWG; printed: GlyArgAsnTrpGly)	127	
GlyMetAsnLysGly (GMNKG; printed: GlyMetAsnLysGly)	60.4	
GlyAspGlnLysGly (GDQKG; printed: GlyAspGlnLysGly)		4600
GlyPheGlnLysGly (GFQKG; printed: GlyPheGlnLysGly)		6200
GlyPheGlnHisGly (GFQHG; printed: GlyPheGlnHisGly)		6200
GlyAlaAsnThrGly (GANTG; printed: GlyAlaAsnThrGly)	43.5	
GlyLeuAsnGlyGly (GLNGG; printed: GlyLeuAsnGlyGly)	1.08	
GlyMetGlnLysGly (GMQKG; printed: GlyMetGlnLysGly)		4600
GlyIleAsnValGly (GINVG; printed: GlyIleAsnValGly)	295	
GlyHisGlnIleGly (GHQIG; printed: GlyHisGlnIleGly)		6700
GlyAlaAsnAmCysGly	40.6	
GlyCysGlnMetGly (GCQMG; printed: GlyCysGlnMetGly)		3200
GlySerAsnTyrGly (GSNYG; printed: GlySerAsnTyrGly)	64.7	
GlyGlyAsnArgGly (GGNRG; printed: GlyGlyAsnArgGly)	57.8	
GlySerAsnGlyGly (GSNGG; printed: GlySerAsnGlyGly)	0.96	
GlySerGlnLysGly (GSQKG; printed: GlySerGlnLysGly)		6300
GlyLeuAsnLysGly (GLNKG; printed: GlyLeuAsnLysGly)	60.1	
GlyProAsnSerGly (GPNSG; printed: GlyProAsnSerGly)	18.9	
